B1: Eif4g2 (protein, UniProt Q62448 1-906, looked up)
Eukaryotic translation …: MESAIAEGGASRFSASSGGGGSRGAPQHYPKTAGNSEFLGKTPGQNAQKWIPARSTRRDDNSAANNSANEKERHDAIFRKVRGILNKLTPEKFDKLCLELLNVGVESKLILKGVILLIVDKALEEPKYSSLYAQLCLRLAEDAPNFDGPAAEGQPGQKQSTTFRRLLISKLQDEFENRTRNVDVYDKRENPLLPEEEEQRAIAKIKMLGNIKFIGELGKLDLIHESILHKCIKTLLEKKKRVQLKDMGEDLECLCQIMRTVGPRLDHERAKSLMDQYFARMCSLMLSKELPARIRFLLQDTVELREHHWVPRKAFLDNGPKTINQIRQDAVKDLGVFIPAPMAQGRSDFFLEGPFMPPRMKMDRDPLGGLADMFGQMPGSGIGTGPGVIQDRFSPTMGRHRSNQLFNGHGGHIMPPTQSQFGEMGGKFMKSQGLSQLYHNQSQGLLSQLQGQSKDMPPRFSKKGQLNADEISLRPAQSFLMNKNQVPKLQPQITMIPPSAQPPRTQTPPLGQTPQLGLKTNPPLIQEKPAKTSKKPPPSKEELLKLTEAVVTDYLNSGNANDAVSGVREMRAPKHFLPEMLSKVIILSLDRSDEDKEKASSLISLLKQEGIATSDNFMQAFLNVLEQCPKLEVDIPLVKSYLAQFAARAIISELVSISELAQPLESGTHFPLFLLCLQQLAKLQDREWLTELFQQSKVNMQKMLPEIDQNKDRMLEILEGKGLSFLFPLLKLEKELLKQIKLDPSPQTIYKWIKDNISPKLHVDKGFVNILMTSFLQYISSEVSPPSDETDSSSAPSKEQLEQEKQLLLSFKPVMQKFLHDHVDLQVSALYALQVHCYNSSFPKGMLLRFFVHFYDMEIIEEEAFLAWKEDITQEFPGKGKALFQVNQWLTWLETAEEEESEEEAD
B2: Itgb5 (protein, UniProt O70309 24-798, looked up)
Integrin beta-5: GLNICTSGSATSCEECLLIHPKCAWCSKEYFGNPRSITSRCDLKANLIRNGCEGEIESPASSTHVLRNLPLSSKGSSATGSDVIQMTPQEIAVSLRPGEQTTFQLQVRQVEDYPVDLYYLMDLSLSMKDDLENIRSLGTKLAEEMRKLTSNFRLGFGSFVDKDISPFSYTAPRYQTNPCIGYKLFPNCVPSFGFRHLLPLTDRVDSFNEEVRKQRVSRNRDAPEGGFDAVLQAAVCKEKIGWRKDALHLLVFTTDDVPHIALDGKLGGLVQPHDGQCHLNEANEYTASNQMDYPSLALLGEKLAENNINLIFAVTKNHYMLYKNFTALIPGTTVEILHGDSKNIIQLIINAYSSIRAKVELSVWDQPEDLNLFFTATCQDGISYPGQRKCEGLKIGDTASFEVSVEARSCPGRQAAQSFTLRPVGFRDSLQVEVAYNCTCGCSTGLEPNSARCSGNGTYTCGLCECDPGYLGTRCECQEGENQSGYQNLCREAEGKPLCSGRGECSCNQCSCFESEFGRIYGPFCECDSFSCARNKGVLCSGHGECHCGECKCHAGYIGDNCNCSTDVSTCKAKDGQICSDRGRCVCGQCQCTEPGAFGETCEKCPTCPDACSSKRDCVECLLLHQGKPDNQTCHHQCKDEVITWVDTIVKDDQEAVLCFYKTAKDCVMMFSYTELPNGRSNLTVLREPECGSAPNAMTILLAVVGSILLIGMALLAIWKLLVTIHDRREFAKFQSERSRARYEMASNPLYRKPISTHTVDFAFNKFNKSYNGSV
B3: Atp6v1h (protein, UniProt Q8BVE3 1-483, looked up)
V-type proton ATPase subunit H: MTKMDIRGAVDAAVPTNIIAAKAAEVRANKVNWQSYLQGQMISAEDCEFIQRFEMKRSSEDKQEMLQTEGSQCAKTFINLMTHISKEQTVQYILTMVDDMLQENHQRVSIFFDYAKRSKSTAWPYFLPMLNRQDPFTVHMAARIIAKLAAWGKELMEGSDLNYYFNWIKTQLSSQKLRGSGVAVETGTISSSDSSQYVQCVAGCLQLMLRVNEYRFAWVEADGVNCIMGVLSNKCGFQLQYQMIFSIWLLAFSPQMCEHLRRYNIIPVLSDILQESVKEKVTRIILAAFRNFLEKSTERETRQEYALAMIQCKVLKQLENLEQQKYDDEDISEDIKFLLEKLGESVQDLSSFDEYSSELKSGRLEWSPVHKSEKFWRENAVRLNEKNYELLKILTKLLEVSDDPQVLAVAAHDVGEYVRHYPRGKRVIEQLGGKQLVMNHMHHEDQQVRYNALLAVQKLMVHNWEYLGKQLQSEQPQTAAARS
B4: Mri1 (protein, UniProt Q9CQT1 1-369, looked up)
Methylthioribose-1-phosphate …: MTLEAIRYSPGSLQILDQLQLPEHCHYEALSSVQQASEAIRAMKVRGAPAIALVGCLSLAVELRAGAGGPGLAALVAFVRDQLRLLVAARPTAVNMARAARDLGQVAAQEAEREGATEETVRERVIRFAEDMLEKDLKDNRSIGDLGARHLLEQTNPRGGKVTVLTHCNTGALATAGYGTALGVIRSLHEMGRLEHTFCTETRPYNQGARLTAFELVYEQIPATLITDSMAAAAMAHRGVSAVVVGADRVVANGDTANKIGTYQLAIVAKHHGVPFYVAAPSSSCDLHLETGKEIVIEERPSQELTDLNGVRIAAQGIRVWNPAFDVTPHELITGGIITELGVFAPEELRGALSASVFSEGQTLDSPWV
B5: Sec31a (protein, UniProt Q3UPL0 1-1230, looked up)
Protein transport protein …: MKLKEIDRTAMQAWSPAQNHPIYLATGTSAQQLDATFSTNASLEIFELDLSDPSLDMKSCATFSSSHRYHKLIWGPHKMDSKGDVSGVLIAGGENGNIILYDPSKIIAGDKEVVIAQKDKHTGPVRALDVNIFQTNLVASGANESEIYIWDLNNFATPMTPGAKTQPPEDISCIAWNRQVQHILASASPSGRATVWDLRKNEPIIKVSDHSNRMHCSGLAWHPDVATQMVLASEDDRLPVIQMWDLRFASSPLRVLENHARGILAVAWSMADPELLLSCGKDAKILCSNPNTGEVLYELPTNTQWCFDIQWCPRNPAVLSAASFDGRISVYSIMGGSIDGLRQKQVDKLSSSFGNLDPFGTGQPLPPLQIPQQSAQHSIVLPLKKPPKWIRRPVGASFSFGGKLVTFESVAVPLQQGAEQQRRQPVFISQVVTEKDFLNRSAQLQHAVQSQGFIGYCQKKIEASQTEFEKNVWSFLKVNFEEDSRGKYLELLGYRKEDLGQKIALALNKVDGPDVALKDSDQVAQSDGEESPAAEEQLLGERIKEEKQECDFLPSAGGTFNISVSGDIDGLITRALLTGNFESAVDLCLHDNRMADAIILAIAGGQELLAQTQKKYFAKSQSKITRLITAVVMKNWREIVESCDLKNWREALAAVLTYAKPDEFSALCDLLGTRLEREGDSLLRTQACLCYICAGNVERLVACWTKAQDGSSPLSLQDLIEKVVILRKAVQLTQALDTNTVGALLAEKMSQYASLLAAQGSIAAALAFLPDNTNQPNIVQLRDRLCKAQGKPVSGQESSQSPYERQPLSKGRPGPVAGHSQMPRVQTQQYYPHGENPPPPGFIMQGNVIPNPAAPLPTAPGHMPSQLPPYPQPQPYQPAQQYSFGTGGAAAYRPQQPVAPPASNAYPNTPYISPVASYSGQPQMYTAQQASSPTSSSAASFPPPSSGASFQHGGPGAPPSSSAYALPPGTTGTPPAASELPASQRTENQSFQDQASILEGPQNGWNDPPALNRVPKKKKMPENFMPPVPITSPIMNPSGDPQSQGLQQQPSTPGPLSSHASFPQQHLAGGQPFHGVQQPLAQTGMPPSFSKPNTEGAPGAPIGNTIQHVQALPTEKITKKPIPEEHLILKTTFEDLIQRCLSSATDPQTKRKLDDASKRLEFLYDKLREQTLSPTIINGLHSIARSIETRNYSEGLSVHTHIVSTSNFSETSAFMPVLKVVLSQASKLGV
B6: Efemp1 (protein, UniProt Q8BPB5 18-493, looked up)
EGF-containing fibulin-like …: QYTEETITYTQCTDGYEWDPIRQQCKDIDECDIVPDACKGGMKCVNHYGGYLCLPKTAQIIVNNEHPQQETPAAEASSGATTGTVAARSMATSGVVPGGGFMASATAVAGPEVQTGRNNFVIRRNPADPQRIPSNPSHRIQCAAGYEQSEHNVCQDIDECTSGTHNCRTDQVCINLRGSFTCQCLPGYQKRGEQCVDIDECTVPPYCHQRCVNTPGSFYCQCSPGFQLAANNYTCVDINECDASNQCAQQCYNILGSFICQCNQGYELSSDRLNCEDIDECRTSSYLCQYQCVNEPGKFSCMCPQGYEVVRSRTCQDINECETTNECREDEMCWNYHGGFRCYPRNPCQDHYVLTSENRCVCPVSNTMCRELPQSIVYKYMSIRSDRSVPSDIFQIQATMIYANTINTFRIKSGNENGEFYLRQTSPVSAMLVLVKSLSGPREYIVDLEMLTVSSIGTFRTSSVLRLTIIVGPFSF

What was measured:
WT MEF EVs = test: Quantitative LC-MS/MS proteomics of EVs from ISRIB-treated WT MEF cultures; assay type: cell-based, mouse; parameters: key to ISRIB and DYT Parallel Direction / ISRIB and DYT Parallel Direction, Ctdsp1 / ISRIB and DYT Parallel Direction, Pcdh19 / ISRIB and DYT Parallel Direction, Tspan7 / ISRIB and DYT Parallel Direction, Myo1e / ISRIB and DYT Parallel Direction, Plpp3 / ISRIB and DYT Parallel Direction, Sh3bp4 / ISRIB and DYT Parallel Direction, Dnajc7 / ISRIB and DYT Parallel Direction, Drg1 / ISRIB and DYT Parallel Direction, Maea: YES = protein abundance effect similar to DYT/WT; conditions: EV protein abundance; for WT + ISRIB/WT Cohen's d: ISRIB-treated WT vs WT; for ISRIB and DYT Parallel Direction: WT + ISRIB vs WT, direction compared with DYT/WT
DYT-TOR1A MEF EVs = test: Quantitative LC-MS/MS proteomics of EVs from drug-treated DYT-TOR1A MEF cultures (ritonavir, salubrinal); assay type: cell-based, mouse; parameters: key to RTV Corrective Direction / RTV Corrective Direction, Grwd1 / RTV Corrective Direction, Srrm2 / RTV Corrective Direction, Rbm17 / RTV Corrective Direction, Dcaf8 / RTV Corrective Direction, Edil3 / RTV Corrective Direction, Timp3 / RTV Corrective Direction, Heatr3 / RTV Corrective Direction, Brd4 / RTV Corrective Direction, P3h4 / RTV Corrective Direction, Pacsin3 / RTV Corrective Direction, Naa50 / RTV Corrective Direction, Lpar6 / RTV Corrective Direction, Ndrg1 / RTV Corrective Direction, Kntc1 / RTV Corrective Direction, Cdk11b / RTV Corrective Direction, Sumo1 / RTV Corrective Direction, Lsm4 / RTV Corrective Direction, Hmga2 / RTV Corrective Direction, Cstf1 / RTV Corrective Direction, Tes / RTV Corrective Direction, Sbno1 / RTV Corrective Direction, Unc119b / RTV Corrective Direction, Cfdp1 / RTV Corrective Direction, Sec61b: YES = protein abundance effect opposite to DYT/WT; conditions: EV protein abundance; for RTV Corrective Direction: DYT + RTV (ritonavir) vs DYT, direction compared with DYT/WT; for DYT + RTV/DYT Cohen's d: ritonavir (RTV)-treated DYT vs DYT

Row | Molecule | WT + ISRIB/WT Cohen's d (WT MEF EVs) | ISRIB and DYT Parallel Direction (WT MEF EVs) | RTV Corrective Direction (DYT-TOR1A MEF EVs) | DYT + RTV/DYT Cohen's d (DYT-TOR1A MEF EVs)
1 | B1 | −3.04 | YES | YES | 2.79
2 | B2 | 1.22 | YES | YES | −4.69
3 | B3 | −0.66 | YES | YES | 4.82
4 | B4 | −0.01 | YES | YES | 5.85
5 | B5 | −1.34 | YES | YES | 5.50
6 | B6 | 0.07 | YES | YES | −4.60

Reference: patent US20260266848A1, “COMPOSITIONS AND METHODS FOR DIAGNOSING AND TREATING DYSTONIA” (Duke University, priority 2023, published 2026)
